In data set [1] the target is T1, recombinant human full-length TrpRS (SY variant) with C-terminal His6-tag.
T1 chain: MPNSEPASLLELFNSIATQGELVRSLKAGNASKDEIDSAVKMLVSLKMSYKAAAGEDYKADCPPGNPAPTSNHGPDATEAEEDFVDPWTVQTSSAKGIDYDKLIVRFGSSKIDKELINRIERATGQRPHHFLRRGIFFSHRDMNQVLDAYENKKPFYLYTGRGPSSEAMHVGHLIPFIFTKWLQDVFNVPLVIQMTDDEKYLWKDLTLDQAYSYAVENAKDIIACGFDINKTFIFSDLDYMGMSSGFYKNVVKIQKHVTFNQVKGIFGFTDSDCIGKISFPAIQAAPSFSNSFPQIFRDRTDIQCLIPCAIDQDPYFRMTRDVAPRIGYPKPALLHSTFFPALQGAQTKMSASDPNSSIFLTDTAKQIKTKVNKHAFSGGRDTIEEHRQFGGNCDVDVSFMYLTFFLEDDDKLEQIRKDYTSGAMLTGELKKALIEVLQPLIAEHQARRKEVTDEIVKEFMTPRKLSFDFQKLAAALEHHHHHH

Data set [2] deals with the molecule itself. Put plainly: SDS-PAGE, unheated against heated samples; band at roughly 86 kDa disappears on heating, band at roughly 43 kD remains.

B1: PMN elastase (protein)
chain: IVGGRRARPHAWPFMVSLQLRGGHFCGATLIAPNFVMSAAHCVANVNVRAVRVVLGAHNLSRREPTRQVFAVQRIFENGYDPVNLLNDIVILQLNGSATINANVQVAQLPAQGRRLGNGVQCLAMGWGLLGRNRGIASVLQELNVTVVTSLCRRSNVCTLVRGRQAGVCFGDSGSPLVCNGLIHGIASFVRGGCASGLYPDAFAPVAQFVNWIDSIIQ
On to B1, for which the “cleavage seen on 12.5% SDS-polyacrylamide gels” value in data set [1] was “cleavage of full-length TrpRS (SY variant) by PMN elastase generated a major fragment of about 46 kDa (SEQ ID NO: 25) and a minor fragment of about 43.5 kDa (SEQ ID NO: 24)”.

B2: T2-TrpRS (SY variant, without 6-His tag) produced by E. coli expression of the vector of SEQ ID NO: 70 (pAS-001) (other)
chain: SAKGIDYDKLIVRFGSSKIDKELINRIERATGQRPHHFLRRGIFFSHRDMNQVLDAYENKKPFYLYTGRGPSSEAMHVGHLIPFIFTKWLQDVFNVPLVIQMTDDEKYLWKDLTLDQAYSYAVENAKDIIACGFDINKTFIFSDLDYMGMSSGFYKNVVKIQKHVTFNQVKGIFGFTDSDCIGKISFPAIQAAPSFSNSFPQIFRDRTDIQCLIPCAIDQDPYFRMTRDVAPRIGYPKPALLHSTFFPALQGAQTKMSASDPNSSIFLTDTAKQIKTKVNKHAFSGGRDTIEEHRQFGGNCDVDVSFMYLTFFLEDDDKLEQIRKDYTSGAMLTGELKKALIEVLQPLIAEHQARRKEVTDEIVKEFMTPRKLSFDFQ
notes: the entries describe two such monomers associating non-covalently into a dimer; also called T2-TrpRS product
For B2, the binding result in data set [2] is reported as “binds”.

The record behind these values is US20060024287A1 (published 2006).
